# Test system: T1, 6xHis-PEBP (recombinant mouse PEBP with a 6xHis-tag at the N-terminus)
# T1 sequence: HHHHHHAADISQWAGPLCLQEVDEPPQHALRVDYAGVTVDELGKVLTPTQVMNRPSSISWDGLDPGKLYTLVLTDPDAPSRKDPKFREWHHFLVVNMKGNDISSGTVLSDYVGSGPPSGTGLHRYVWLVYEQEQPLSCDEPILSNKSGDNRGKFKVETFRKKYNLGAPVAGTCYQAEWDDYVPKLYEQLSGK
# pancreatic elastase, sequence (P00772 27-266): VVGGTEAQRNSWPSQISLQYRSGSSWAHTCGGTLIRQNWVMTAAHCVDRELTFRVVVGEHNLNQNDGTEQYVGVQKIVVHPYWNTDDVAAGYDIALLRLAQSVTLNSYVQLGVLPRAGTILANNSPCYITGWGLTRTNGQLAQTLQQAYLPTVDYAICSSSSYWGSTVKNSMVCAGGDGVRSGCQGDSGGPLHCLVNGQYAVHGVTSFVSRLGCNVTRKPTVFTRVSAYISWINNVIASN
# trypsin, sequence (P00760 24-246): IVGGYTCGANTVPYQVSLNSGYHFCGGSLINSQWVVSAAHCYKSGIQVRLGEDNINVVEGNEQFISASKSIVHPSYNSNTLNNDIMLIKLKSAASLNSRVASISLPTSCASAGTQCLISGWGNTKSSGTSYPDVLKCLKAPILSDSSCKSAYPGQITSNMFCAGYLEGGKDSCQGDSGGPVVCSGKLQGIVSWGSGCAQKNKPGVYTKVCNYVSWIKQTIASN
# tissue plasminogen activator, sequence (P00750 36-562): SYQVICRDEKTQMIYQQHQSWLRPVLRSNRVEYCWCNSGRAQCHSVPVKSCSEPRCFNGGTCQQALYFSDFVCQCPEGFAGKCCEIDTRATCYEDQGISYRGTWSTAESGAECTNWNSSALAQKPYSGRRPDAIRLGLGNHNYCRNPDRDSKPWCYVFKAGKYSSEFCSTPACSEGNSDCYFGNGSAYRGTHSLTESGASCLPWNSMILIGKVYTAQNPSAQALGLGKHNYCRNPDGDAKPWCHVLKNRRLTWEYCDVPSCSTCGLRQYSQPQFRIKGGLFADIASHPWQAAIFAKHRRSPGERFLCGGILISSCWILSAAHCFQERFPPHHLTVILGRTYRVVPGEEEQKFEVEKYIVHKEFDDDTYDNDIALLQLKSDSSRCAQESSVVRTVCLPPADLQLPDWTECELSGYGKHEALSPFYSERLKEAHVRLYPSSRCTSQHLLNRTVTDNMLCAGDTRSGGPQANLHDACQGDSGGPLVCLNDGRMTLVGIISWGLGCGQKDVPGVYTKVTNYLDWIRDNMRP
row,Substance,"amidolytic activity (chromogenic substrate, 405 nm)"
1,pancreatic elastase,The amidolytic activities of ... pancreatic elastase (4 pmol) were not affected
2,tissue plasminogen activator,The amidolytic activities of ... tissue plasminogen activator (0.5 pmol) ... were not affected
3,trypsin,The amidolytic activities of trypsin (0.005 pmol) ... were not affected
